Here are results for eight substances from patent publication US20200316217A1.

Targets include PTHR16E (human) (UniProt Q03431); Human PTHR1 WT (human) (UniProt Q03431); PTHR1YFPΔECD (human); PTHR1GFP (human) (UniProt Q03431); rat PTHR1 (rat) (UniProt P25961); human PTHR2 (human) (UniProt P49190).
What all share (experiment): cell-based or functional assay

Sequence of rat PTHR1 (rat) (P25961 27-591): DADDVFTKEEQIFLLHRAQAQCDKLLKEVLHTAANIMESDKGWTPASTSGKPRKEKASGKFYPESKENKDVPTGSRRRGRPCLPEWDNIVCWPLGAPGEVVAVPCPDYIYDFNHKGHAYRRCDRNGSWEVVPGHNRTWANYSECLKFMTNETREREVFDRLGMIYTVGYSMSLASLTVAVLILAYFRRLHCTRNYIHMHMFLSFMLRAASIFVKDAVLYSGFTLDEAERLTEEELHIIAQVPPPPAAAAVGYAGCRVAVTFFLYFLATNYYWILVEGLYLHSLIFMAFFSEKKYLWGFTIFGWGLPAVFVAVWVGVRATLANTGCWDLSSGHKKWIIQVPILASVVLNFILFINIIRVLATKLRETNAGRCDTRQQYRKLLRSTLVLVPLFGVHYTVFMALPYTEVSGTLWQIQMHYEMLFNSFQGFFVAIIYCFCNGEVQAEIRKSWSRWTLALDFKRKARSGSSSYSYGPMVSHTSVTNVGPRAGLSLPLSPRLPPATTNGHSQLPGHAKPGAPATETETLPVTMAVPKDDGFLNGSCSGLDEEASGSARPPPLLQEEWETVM
Sequence of human PTHR2 (human) (P49190 25-550): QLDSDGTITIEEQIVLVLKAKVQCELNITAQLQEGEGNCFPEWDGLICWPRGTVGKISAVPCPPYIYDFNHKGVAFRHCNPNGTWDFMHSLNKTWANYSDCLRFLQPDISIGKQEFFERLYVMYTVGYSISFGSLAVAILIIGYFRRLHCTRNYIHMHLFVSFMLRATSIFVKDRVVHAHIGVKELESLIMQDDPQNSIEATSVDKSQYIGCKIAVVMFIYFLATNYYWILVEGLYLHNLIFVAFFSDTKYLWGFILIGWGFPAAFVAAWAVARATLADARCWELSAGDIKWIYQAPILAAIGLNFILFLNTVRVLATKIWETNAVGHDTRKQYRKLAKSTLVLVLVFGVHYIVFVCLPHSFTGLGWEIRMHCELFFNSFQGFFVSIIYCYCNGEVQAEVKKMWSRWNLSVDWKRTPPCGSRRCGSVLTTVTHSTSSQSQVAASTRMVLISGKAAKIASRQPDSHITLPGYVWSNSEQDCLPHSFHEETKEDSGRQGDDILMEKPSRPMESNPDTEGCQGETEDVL

In the case of PTH(1-9) (peptide), the Stimulation of receptor (cAMP), EC50 with PTHR16E (human), in the assay with Human PTHR1 WT (human) and with PTHR1YFPΔECD (human) was > 10000 nM each time. The cAMP induction EC50 in the assay with PTHR16E (human), with Human PTHR1 WT (human), with PTHR1YFPΔECD (human) and in the assay with PTHR1GFP (human) was > 10000 nM each time.
In the case of PTH(1-10) (peptide), the values for the Stimulation of receptor (cAMP), EC50 with PTHR16E (human), in the assay with Human PTHR1 WT (human) and with PTHR1YFPΔECD (human) were 5080 nM, 3120 nM and 3840 nM, respectively. The cAMP induction EC50 was 5080 nM in the assay with PTHR16E (human); 2470 nM in the assay with rat PTHR1 (rat); 3120 nM with Human PTHR1 WT (human); 3840 nM in the assay with PTHR1YFPΔECD (human); 2550 nM in the assay with PTHR1GFP (human). Moreover, the cAMP induction Max (normalized) with PTHR16E (human) was determined as 1.09 normalized; in the assay with rat PTHR1 (rat) it was 1.09 normalized; with Human PTHR1 WT (human), 1.03 normalized; with PTHR1YFPΔECD (human) it was 1.12 normalized; with PTHR1GFP (human), 1.16 normalized.
Consider PTH(1-11) (peptide), for which the cAMP induction EC50 in the assay with human PTHR2 (human) is > 100000 nM; with PTHR16E (human), 94 nM; with rat PTHR1 (rat), 120 nM; with Human PTHR1 WT (human), 516 nM; with PTHR1YFPΔECD (human), 246 nM; with PTHR1GFP (human), 79 nM. In addition, the cAMP induction Max (normalized) with human PTHR2 (human) turned out to be 0.36 normalized; with PTHR16E (human) it was 1.09 normalized; with rat PTHR1 (rat), 1.02 normalized; with Human PTHR1 WT (human), 1.01 normalized; in the assay with PTHR1YFPΔECD (human) it was 1.02 normalized; with PTHR1GFP (human), 1.1 normalized. Besides, the cAMP induction, percent at 100 uM in the assay with human PTHR2 (human) turned out to be 20 % at 100 µM. Also, the Stimulation of receptor (cAMP), EC50 with PTHR16E (human) came to 94 nM; with Human PTHR1 WT (human), 516 nM; with PTHR1YFPΔECD (human), 246 nM. The same substance gave a half maximal stimulation (cAMP-sensitive luciferase) with PTHR1GFP (human) of 200 nM.
Turning to PTH(1-14) (peptide), the cAMP induction EC50 with human PTHR2 (human) amounted to 924 nM; in the assay with PTHR16E (human) it was 3.4 nM; in the assay with Human PTHR1 WT (human), 4.3 nM; with PTHR1YFPΔECD (human), 1.1 nM; with PTHR1GFP (human) it was 2.3 nM. Further, the cAMP induction Max (normalized) in the assay with human PTHR2 (human) came to 1.14 normalized; in the assay with PTHR16E (human), 1.06 normalized; with Human PTHR1 WT (human), 1.01 normalized; with PTHR1YFPΔECD (human), 0.96 normalized; with PTHR1GFP (human), 1.09 normalized. The Stimulation of receptor (cAMP), EC50 with PTHR16E (human) is 3.4 nM; in the assay with Human PTHR1 WT (human), 4.3 nM; in the assay with PTHR1YFPΔECD (human) it was 1.1 nM.
For the substance VHHGFP-PTH(1-9), in the assay with PTHR1YFPΔECD (human), the Stimulation of receptor (cAMP), percent activation (% activation at 100 nM) came out at 40; the cAMP induction Max (normalized) amounted to 0.38 normalized; the cAMP induction, percent activation (% activation at 100 nM) came out at 40. In addition, the cAMP induction EC50 in the assay with PTHR1GFP (human) was > 100 nM.
In the assay with PTHR1YFPΔECD (human), VHHGFP-PTH(1-10) gave a Stimulation of receptor (cAMP), EC50 of 0.46 nM; a cAMP induction EC50 of 0.46 nM; a cAMP induction Max (normalized) of 1.06 normalized; a potency, fold against PTH(1-10) of 7800 fold. The cAMP induction EC50 in the assay with PTHR1GFP (human) is > 100 nM.
For VHHGFP-PTH(1-11), the Stimulation of receptor (cAMP), EC50 with PTHR16E (human) was > 100 nM; in the assay with Human PTHR1 WT (human), > 100 nM; with PTHR1YFPΔECD (human) it was 0.14 nM. In addition, the cAMP induction EC50 with PTHR16E (human) is > 100 nM; in the assay with rat PTHR1 (rat), > 100 nM; with Human PTHR1 WT (human), > 100 nM; with PTHR1YFPΔECD (human), 0.14 nM; with PTHR1GFP (human) it was 8 nM. The activation of PTHR1 in the assay with Human PTHR1 WT (human) is > 100 nM. Besides, in the assay with PTHR1YFPΔECD (human), the activity, fold enhancement against PTH(1-11) was > 20000 fold. Further, the cAMP induction Max (normalized) with PTHR1YFPΔECD (human) worked out at 1.19 normalized; with PTHR1GFP (human), 1.1 normalized.
Turning to VHHGFP-PTH(1-14), the values for the Stimulation of receptor (cAMP), EC50 with PTHR16E (human), in the assay with Human PTHR1 WT (human) and in the assay with PTHR1YFPΔECD (human) were > 100 nM, > 100 nM and 0.58 nM, respectively. Moreover, the cAMP induction EC50 with PTHR16E (human) is > 100 nM; in the assay with Human PTHR1 WT (human), > 100 nM; with PTHR1YFPΔECD (human), 0.58 nM; in the assay with PTHR1GFP (human) it was 1.8 nM. Besides, the cAMP induction Max (normalized) in the assay with PTHR1YFPΔECD (human) is 1.16 normalized; with PTHR1GFP (human) it was 1.21 normalized.
